Source: patent publication US11912777 (NANJING LEADS BIOLABS, dated 2024)

Assays:
TNFR2 = test: ELISA on coated TNFR2, positive control of the TNFR superfamily cross-binding test; lower panel
[1] = target: T1, His-tagged cynomolgus monkey TNFR2 (Sino Biological, Cat #90102-C08H) (cynomolgus monkey, UniProt A0A2K5VET2 132-366); test: BLI (Octet RED 96), antibody on Fc capture tips, His-tagged TNFR2 as analyte, 1:1 global fit
T1 construct: Bought reagent, analyte in BLI; also called Cynomolgus TNFR2; recombinant cynomolgus monkey TNFR2; not shown: His tag
T1 sequence: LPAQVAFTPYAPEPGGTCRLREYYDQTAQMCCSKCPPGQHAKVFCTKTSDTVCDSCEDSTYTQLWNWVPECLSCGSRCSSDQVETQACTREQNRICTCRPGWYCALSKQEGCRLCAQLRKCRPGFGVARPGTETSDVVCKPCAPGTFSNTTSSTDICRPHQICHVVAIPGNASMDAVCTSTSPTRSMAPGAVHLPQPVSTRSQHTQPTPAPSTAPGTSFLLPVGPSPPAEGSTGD

[2] = target: T2, His-tagged human TNFR2 (Sino Biological, Cat #10417-H08H) (human, UniProt P20333 23-257); test: as above
T2 construct: Bought reagent, analyte in BLI; also called recombinant human TNFR2; not shown: His tag
T2 sequence (looked up): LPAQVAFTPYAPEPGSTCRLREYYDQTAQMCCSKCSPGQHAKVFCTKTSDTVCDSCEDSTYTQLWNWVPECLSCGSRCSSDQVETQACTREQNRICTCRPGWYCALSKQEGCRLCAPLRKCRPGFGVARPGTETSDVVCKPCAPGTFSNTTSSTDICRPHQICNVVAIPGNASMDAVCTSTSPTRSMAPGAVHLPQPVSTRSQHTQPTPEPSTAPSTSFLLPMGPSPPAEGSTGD

[3] = target: T3, mouse TNFR2 variant 019-5 (human segment 39G-75C) (mouse with a human segment); test: ELISA, TNFR2 variant coated at 0.5 µg/mL
T3 construct: Mouse TNFR2 extracellular domain with the human segment, followed by a human Fc

[4] = target: T4, mouse TNFR2 variant 019-0.5-2 (human segment 1L-16S) (mouse with a human segment); test: ELISA, TNFR2 variant coated at 0.5 µg/mL
T4 construct: Mouse TNFR2 extracellular domain with the human segment, followed by a human Fc; also called 019-0-0.5-2

[5] = target: T5, mouse TNFR2 variant 019-3 (human segment 98T-141K) (mouse with a human segment); test: ELISA, TNFR2 variant coated at 0.5 µg/mL
T5 construct: Mouse TNFR2 extracellular domain with the human segment, followed by a human Fc

[6] = target: T6, mouse TNFR2 variant 019-1 (human segment 17T-54D) (mouse with a human segment); test: ELISA, TNFR2 variant coated at 0.5 µg/mL
T6 construct: Mouse TNFR2 extracellular domain with the human segment, followed by a human Fc

[7] = target: T7, mouse TNFR2 variant 019-0.5-1 (human segment 17T-31C) (mouse with a human segment); test: ELISA, TNFR2 variant coated at 0.5 µg/mL
T7 construct: Mouse TNFR2 extracellular domain with the human segment, followed by a human Fc

[8] = target: T8, mouse TNFR2 variant 019-4 (human segment 143P-181T) (mouse with a human segment); test: ELISA, TNFR2 variant coated at 0.5 µg/mL
T8 construct: Mouse TNFR2 extracellular domain with the human segment, followed by a human Fc

[9] = target: T9, mouse TNFR2 variant 019-2 (human segment 56S-97C) (mouse with a human segment); test: ELISA, TNFR2 variant coated at 0.5 µg/mL
T9 construct: Mouse TNFR2 extracellular domain with the human segment, followed by a human Fc

[10] = target: T10, mouse TNFR2 variant 019-6 (human segment 76G-121K) (mouse with a human segment); test: ELISA, TNFR2 variant coated at 0.5 µg/mL
T10 construct: Mouse TNFR2 extracellular domain with the human segment, followed by a human Fc

[11] = target: T11, mouse TNFR2 variant 019-0-1 (human segment 1L-54D) (mouse with a human segment); test: ELISA on coated variant 019-0-1, epitope mapping; upper panel
T11 construct: Mouse TNFR2 extracellular domain with the human segment, followed by a human Fc

[12] = target: T12, human CD40 (Sino Biological, Cat #10774-H08H) (human, UniProt P25942 21-193); test: ELISA, protein coated
T12 construct: Bought reagent coated on ELISA plates

[13] = target: T13, human GITR (Sino Biological, Cat #13643-H08H) (human, UniProt Q9Y5U5 26-161); test: ELISA, protein coated
T13 construct: Bought reagent coated on ELISA plates
T13 sequence (looked up): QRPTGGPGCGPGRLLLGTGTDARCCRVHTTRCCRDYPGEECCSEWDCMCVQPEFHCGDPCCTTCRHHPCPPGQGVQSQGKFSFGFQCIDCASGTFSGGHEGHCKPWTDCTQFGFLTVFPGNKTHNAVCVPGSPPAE

[14] = target: T14, human TNFR2 expressed on the cell surface of 293T cells (human, UniProt P20333 23-461); test: flow cytometry, blocking of Biotin-TNF-alpha binding to human TNFR2 on 293T cells; right panel; unit from the axis
T14 construct: also called HuTNFR2; human TNFR2 on cell surface
T14 sequence: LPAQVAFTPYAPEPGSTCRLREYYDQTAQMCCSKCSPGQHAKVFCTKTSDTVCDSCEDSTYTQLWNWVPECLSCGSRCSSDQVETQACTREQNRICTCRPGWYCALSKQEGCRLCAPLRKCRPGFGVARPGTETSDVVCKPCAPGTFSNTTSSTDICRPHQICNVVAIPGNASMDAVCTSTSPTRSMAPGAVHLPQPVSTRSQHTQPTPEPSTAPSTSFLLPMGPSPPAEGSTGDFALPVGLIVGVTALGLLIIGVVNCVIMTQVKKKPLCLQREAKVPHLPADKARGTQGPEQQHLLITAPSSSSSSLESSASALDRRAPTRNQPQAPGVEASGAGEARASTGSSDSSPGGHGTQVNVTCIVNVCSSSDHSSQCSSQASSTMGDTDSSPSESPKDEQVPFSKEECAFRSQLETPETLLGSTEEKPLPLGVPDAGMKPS

T12 sequence (P25942 21-193 limits assumed): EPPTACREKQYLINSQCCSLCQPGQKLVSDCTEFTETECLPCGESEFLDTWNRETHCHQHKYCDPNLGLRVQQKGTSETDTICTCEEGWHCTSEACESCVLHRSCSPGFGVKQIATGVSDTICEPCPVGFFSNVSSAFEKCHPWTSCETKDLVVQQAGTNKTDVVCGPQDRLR
T5 sequence (chain, as listed by the source mutant limits assumed): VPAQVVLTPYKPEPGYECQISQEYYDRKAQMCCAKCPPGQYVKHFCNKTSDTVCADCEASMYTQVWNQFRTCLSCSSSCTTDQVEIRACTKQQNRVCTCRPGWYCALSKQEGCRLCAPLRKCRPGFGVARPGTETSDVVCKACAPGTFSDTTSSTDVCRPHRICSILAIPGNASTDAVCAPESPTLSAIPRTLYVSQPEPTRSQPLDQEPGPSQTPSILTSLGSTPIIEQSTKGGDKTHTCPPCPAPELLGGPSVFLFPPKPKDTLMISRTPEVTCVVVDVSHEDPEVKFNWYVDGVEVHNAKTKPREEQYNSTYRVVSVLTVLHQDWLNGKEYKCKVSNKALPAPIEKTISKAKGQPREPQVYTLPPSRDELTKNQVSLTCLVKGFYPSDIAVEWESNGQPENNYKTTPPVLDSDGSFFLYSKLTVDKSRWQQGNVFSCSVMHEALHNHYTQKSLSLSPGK
T10 sequence (chain, as listed by the source mutant limits assumed): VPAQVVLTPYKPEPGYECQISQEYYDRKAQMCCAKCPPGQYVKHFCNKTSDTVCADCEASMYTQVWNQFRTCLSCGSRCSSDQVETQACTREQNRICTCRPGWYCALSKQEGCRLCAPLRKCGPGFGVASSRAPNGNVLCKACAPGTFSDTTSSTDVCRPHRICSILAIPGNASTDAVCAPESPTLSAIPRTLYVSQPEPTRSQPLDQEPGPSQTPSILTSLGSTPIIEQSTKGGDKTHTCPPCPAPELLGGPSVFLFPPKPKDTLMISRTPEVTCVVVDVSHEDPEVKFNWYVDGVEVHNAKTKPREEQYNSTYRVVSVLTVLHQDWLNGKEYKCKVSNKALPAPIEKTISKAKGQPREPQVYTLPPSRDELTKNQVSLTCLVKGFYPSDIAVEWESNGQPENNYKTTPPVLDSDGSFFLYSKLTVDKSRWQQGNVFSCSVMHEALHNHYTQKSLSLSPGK
T6 sequence (chain, as listed by the source mutant limits assumed): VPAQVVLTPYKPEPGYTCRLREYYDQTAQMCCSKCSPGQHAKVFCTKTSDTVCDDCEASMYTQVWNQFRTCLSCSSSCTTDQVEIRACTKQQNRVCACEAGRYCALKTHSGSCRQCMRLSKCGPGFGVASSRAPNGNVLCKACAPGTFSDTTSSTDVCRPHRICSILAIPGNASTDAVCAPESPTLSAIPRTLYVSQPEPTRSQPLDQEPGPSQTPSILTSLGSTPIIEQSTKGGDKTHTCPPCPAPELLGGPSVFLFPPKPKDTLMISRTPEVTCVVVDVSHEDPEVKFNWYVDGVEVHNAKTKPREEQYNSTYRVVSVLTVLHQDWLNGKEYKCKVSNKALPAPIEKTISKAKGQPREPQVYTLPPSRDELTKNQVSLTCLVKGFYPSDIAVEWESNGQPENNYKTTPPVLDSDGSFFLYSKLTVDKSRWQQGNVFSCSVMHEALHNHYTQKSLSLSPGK
T3 sequence (chain, as listed by the source mutant limits assumed): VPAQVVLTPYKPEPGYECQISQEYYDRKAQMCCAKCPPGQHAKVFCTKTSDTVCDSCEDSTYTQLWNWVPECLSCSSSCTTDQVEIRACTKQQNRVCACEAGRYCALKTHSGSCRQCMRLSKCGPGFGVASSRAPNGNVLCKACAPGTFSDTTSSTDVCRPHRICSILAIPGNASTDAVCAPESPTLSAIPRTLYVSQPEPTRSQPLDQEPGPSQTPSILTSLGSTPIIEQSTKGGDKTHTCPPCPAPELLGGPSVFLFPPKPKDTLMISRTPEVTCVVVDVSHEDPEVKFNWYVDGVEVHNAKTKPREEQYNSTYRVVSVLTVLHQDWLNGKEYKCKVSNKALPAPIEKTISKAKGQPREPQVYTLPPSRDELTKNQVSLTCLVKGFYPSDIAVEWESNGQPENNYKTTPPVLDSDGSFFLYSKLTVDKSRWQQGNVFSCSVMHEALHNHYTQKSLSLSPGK
T7 sequence (chain, as listed by the source mutant limits assumed): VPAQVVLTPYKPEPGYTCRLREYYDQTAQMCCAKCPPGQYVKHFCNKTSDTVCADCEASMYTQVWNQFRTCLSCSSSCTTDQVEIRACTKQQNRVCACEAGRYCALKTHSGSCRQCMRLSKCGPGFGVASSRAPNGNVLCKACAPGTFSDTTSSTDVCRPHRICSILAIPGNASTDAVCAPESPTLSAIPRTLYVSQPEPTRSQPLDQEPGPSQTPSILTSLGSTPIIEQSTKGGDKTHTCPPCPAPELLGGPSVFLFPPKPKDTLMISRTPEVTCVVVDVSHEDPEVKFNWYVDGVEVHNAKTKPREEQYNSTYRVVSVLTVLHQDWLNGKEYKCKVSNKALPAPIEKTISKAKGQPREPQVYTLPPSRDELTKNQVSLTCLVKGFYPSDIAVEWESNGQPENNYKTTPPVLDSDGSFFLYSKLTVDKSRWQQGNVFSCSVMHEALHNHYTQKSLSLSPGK
T4 sequence (chain, as listed by the source mutant limits assumed): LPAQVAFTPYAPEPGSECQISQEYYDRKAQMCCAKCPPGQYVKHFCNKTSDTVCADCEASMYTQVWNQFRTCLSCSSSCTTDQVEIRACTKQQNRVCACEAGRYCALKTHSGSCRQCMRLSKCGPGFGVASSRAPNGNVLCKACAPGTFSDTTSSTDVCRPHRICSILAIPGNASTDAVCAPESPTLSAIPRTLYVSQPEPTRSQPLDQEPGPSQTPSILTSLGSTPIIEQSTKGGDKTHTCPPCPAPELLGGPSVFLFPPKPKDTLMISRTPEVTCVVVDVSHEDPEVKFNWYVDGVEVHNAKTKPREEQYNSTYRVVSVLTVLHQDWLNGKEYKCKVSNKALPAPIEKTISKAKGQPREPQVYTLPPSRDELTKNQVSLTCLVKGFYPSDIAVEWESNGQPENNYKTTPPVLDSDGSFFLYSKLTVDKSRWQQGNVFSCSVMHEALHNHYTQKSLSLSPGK
T9 sequence (chain, as listed by the source mutant limits assumed): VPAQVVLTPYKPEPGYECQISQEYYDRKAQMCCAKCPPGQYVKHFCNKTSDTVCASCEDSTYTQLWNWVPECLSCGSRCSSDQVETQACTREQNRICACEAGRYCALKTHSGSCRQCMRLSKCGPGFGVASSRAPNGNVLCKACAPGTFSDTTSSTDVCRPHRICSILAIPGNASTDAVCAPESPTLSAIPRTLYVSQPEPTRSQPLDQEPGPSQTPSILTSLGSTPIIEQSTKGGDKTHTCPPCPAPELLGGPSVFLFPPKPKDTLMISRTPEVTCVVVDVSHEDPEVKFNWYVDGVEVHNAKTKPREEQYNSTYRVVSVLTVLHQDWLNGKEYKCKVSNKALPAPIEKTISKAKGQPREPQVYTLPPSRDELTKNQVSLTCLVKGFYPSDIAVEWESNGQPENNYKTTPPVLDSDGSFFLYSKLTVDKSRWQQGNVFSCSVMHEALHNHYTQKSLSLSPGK
T8 sequence (chain, as listed by the source mutant limits assumed): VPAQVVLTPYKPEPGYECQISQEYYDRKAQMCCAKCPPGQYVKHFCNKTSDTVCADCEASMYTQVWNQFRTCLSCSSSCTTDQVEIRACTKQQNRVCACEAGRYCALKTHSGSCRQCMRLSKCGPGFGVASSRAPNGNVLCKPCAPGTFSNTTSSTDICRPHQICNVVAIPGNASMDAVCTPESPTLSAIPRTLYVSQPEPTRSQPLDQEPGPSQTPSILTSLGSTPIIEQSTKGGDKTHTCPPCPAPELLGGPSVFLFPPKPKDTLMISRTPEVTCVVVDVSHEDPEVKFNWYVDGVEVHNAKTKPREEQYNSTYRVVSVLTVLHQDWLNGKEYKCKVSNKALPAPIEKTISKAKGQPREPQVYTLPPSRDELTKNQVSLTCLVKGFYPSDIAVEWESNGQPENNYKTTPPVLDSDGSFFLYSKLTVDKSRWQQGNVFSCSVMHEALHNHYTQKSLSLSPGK

B1: humanized antibody hu3-E (Hu3-H3/Hu3-L1) (antibody, human IgG1, kappa, V domains shown)
VH: QIQLVQSGAEVKKPGASVKVSCKASGYTFTTYGMSWVRQAPGQGLEWMGWIHTYSGVPTYADDFKGRFAFTLDTSTSTAYMELRSLRSDDTAVYYCARGLYGVDYWGQGTLVTVSS
VL: EIVMTQSPATLSLSPGERATLSCKASENVVTYVSWYQQKPGQAPRLLIYGASNRYTGIPARFSGSGSATDFTLTISSLQPEDFAVYYCGQSYTYPYTFGQGTKLEIKR
notes: Humanized form of 43B7A4, human IgG1/kappa
TNFR2
  EC50 (read off the curve): ~0.06 nM
[1]
  Kd: 3.62 nM
  koff: 0.00185 s⁻¹
  kon: 512000 M⁻¹ s⁻¹
[2]
  Kd: 5.32 nM
  koff: 0.00192 s⁻¹
  kon: 361000 M⁻¹ s⁻¹
[3]
  binding result: no binding (tested: starting concentration 0.4 µg/mL)
[4]
  binding result: no binding (tested: starting concentration 0.4 µg/mL)
[5]
  binding result: no binding (tested: starting concentration 0.4 µg/mL)
[6]
  binding result: no binding (tested: starting concentration 0.4 µg/mL)
[7]
  binding result: no binding (tested: starting concentration 0.4 µg/mL)
[8]
  binding result: no binding (tested: starting concentration 0.4 µg/mL)
[9]
  binding result: no binding (tested: starting concentration 0.4 µg/mL)
[10]
  binding result: no binding (tested: starting concentration 0.4 µg/mL)
[11]
  EC50 (read off the curve): ~6 ng/mL
[12]
  binding result: no binding (tested: starting concentration 0.4 µg/mL)
[13]
  binding result: no binding (tested: starting concentration 0.4 µg/mL)
[14]
  IC50: 11 nM
